Consider 1 substance from patent publication US20180120302A1.

The target of test [1] is T4L-L99A (UniProt P00720). Description: Fluorescence, KD1 (high affinity mode), T = 37° C. and pH = 7.2.
The target of test [2] is T4L-D70N (UniProt P00720). Description: BSI, global analysis, row printed kr1 but read as kr2 (low affinity mode), 25° C., pH 8.0.
For test [3], the target named is T4L-L99A-A130S (UniProt P00720). The test is described as above.
In test [4] the target is T4L-D70N (UniProt P00720). The test can be described thus: BSI, global analysis, KD2 (low affinity mode), 25° C., pH 8.0.
Test [5] addresses T4L-L99A-A130S (UniProt P00720). The test is described as above.
The target in test [6] is T4L-L99A (UniProt P00720). Description: BSI steady-state, KD2 (low affinity mode), T = 37° C. and pH = 7.2.
Test [7] addresses T4L-D70N (UniProt P00720). The test can be described thus: BSI, global analysis, KD1 (high affinity mode), 25° C., pH 8.0.
Test [8] has as its target T4L-L99A-A130S (UniProt P00720). Described as above.
In test [9] the target is T4L-L99A (UniProt P00720). Description: Fluorescence, KD2 (low affinity mode), T = 37° C. and pH = 7.2.
Test [10] addresses T4L-L99A (UniProt P00720). Description: BSI steady-state, KD1 (high affinity mode), T = 37° C. and pH = 7.2.
Test [11] has as its target T4L-D70N (UniProt P00720). The test can be described thus: BSI, global analysis, kr1 (high affinity mode), 25° C., pH 8.0.
For test [12], the target named is T4L-L99A-A130S (UniProt P00720). The test is described as above.
Test [13] shares this target. Description: BSI, global analysis of kinetic traces.
Test [14] addresses T4L-D70N (UniProt P00720). The test can be described thus: BSI corrected steady-state data, 25° C., pH 8.0.
The target of test [15] is T4L-D70N (UniProt P00720). Description: BSI, global analysis, kf2 (low affinity mode), 25° C., pH 8.0.
The target in test [16] is T4L-L99A-A130S (UniProt P00720). Described as above.
Test [17] has as its target T4L-L99A (UniProt P00720). The test can be described thus: ITC, KD2 (low affinity mode), T = 37° C. and pH = 7.2.
In test [18] the target is T4L-L99A (UniProt P00720). Description: ITC, KD1 (high affinity mode), T = 37° C. and pH = 7.2.
Test [19] addresses T4L-D70N (UniProt P00720). Description: BSI, global analysis, kf1 (high affinity mode), 25° C., pH 8.0.
The target in test [20] is T4L-L99A-A130S (UniProt P00720). The description is as above.

What is called Kd is a measure of binding affinity in units of concentration. Read a high Kd as lower affinity. In general, koff refers to a measure of how fast the partners let go of each other. The low end stands for a long-lived complex, the high end for a short-lived complex. As usually defined, the kon is the rate constant with which the complex forms. A low value points to slower complex formation.

Sequence of αB-D3 (αB-crystallin with serine residues 19, 45 and 59 mutated to aspartic acids) (P02511 other isoform, or with tags, fused parts or gaps limits assumed, change not shown): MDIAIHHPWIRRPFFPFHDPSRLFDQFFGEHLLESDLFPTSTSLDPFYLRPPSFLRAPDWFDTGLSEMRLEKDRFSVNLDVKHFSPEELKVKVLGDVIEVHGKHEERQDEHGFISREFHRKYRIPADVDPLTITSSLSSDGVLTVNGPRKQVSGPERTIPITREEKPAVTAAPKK

As to “αB-D3 (αB-crystallin with serine residues 19, 45 and 59 mutated to aspartic acids) (from UniProt P02511 1-175)”, the Kd with T4L-L99A [1] amounted to 20 nM; with T4L-D70N [4] it was 29100 nM; with T4L-L99A-A130S [5], 33000 nM; with T4L-L99A [6] it was 3110 nM; in the test with T4L-D70N [7], 595 nM; with T4L-L99A-A130S [8], 132 nM. Further, the Kd with T4L-L99A [9] was determined as 1000 nM; with T4L-L99A [10] it was 1 nM; in the test with T4L-L99A [17], 2440 nM; in the test with T4L-L99A [18] it was 15 nM. Moreover, the koff stood at 0.0682 s⁻¹ with T4L-D70N [2], 0.115 s⁻¹ with T4L-L99A-A130S [3], 0.0152 s⁻¹ in the test with T4L-D70N [11] and 5.03e-06 s⁻¹ with T4L-L99A-A130S [12]. For the same substance, the fold increase of affinity in the high affinity mode relative to D70N in the test with T4L-L99A-A130S [13] was 4 fold. The substance further showed a reduction in the magnitude of the BSI signal relative to L99A/A130S in the test with T4L-D70N [14] of 40%. For the same substance, the on-rate constant (kon) turned out to be 2340 M⁻¹ s⁻¹ with T4L-D70N [15], 2970 M⁻¹ s⁻¹ with T4L-L99A-A130S [16], 25500 M⁻¹ s⁻¹ with T4L-D70N [19] and 58500 M⁻¹ s⁻¹ with T4L-L99A-A130S [20].
